# Test results as given in the supplement of paper PMC12042874.
# ± gives the uncertainty stated by the source.
# Experiment: amyloid nucleation score (Sup35N fusion, yeast selection) (log enrichment); library NNK3; higher = more nucleation; inactive = no reads after selection
# How it was run: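 On medium lacking adenine and uracil, psi-negative yeast expressing peptides of 20 random codons fused to Sup35N were grown 7 days at 30°C after a 24-hour induction with 100 μM copper sulfate. Illumina sequencing of input and output plasmid inserts gave the reads, and sequences under 100 input reads were excluded. The nucleation score is the DiMSum log enrichment of output over input reads, centred on the mode score of non-aggregating sequences.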
row,Substance,amyloid nucleation score
1,FGTLFSTVFRVLRFNRISAP,inactive
2,VIIIEWV,inactive
3,VLSRGDMATFTTVMMRRDAH,inactive
4,TWVWGKFFGFLNSDISDVRH,inactive
5,MTLWDWDYRLIVRIQLRSTQ,inactive
6,CACIPNFPCKSYHYWRSCNI,inactive
7,NLGLLKAVYCVG,inactive
8,IFFAMISCTYLLDCVDRNWG,inactive
9,GMIASDVFAHFKSGQTMGVW,inactive
10,KKSHCRTIYKSLV,inactive
11,YCDSCLNDFLVWYF,inactive
12,VTYYKSMYTREHFWTLGNSF,0.69 ± 0.21
13,LARLYYHFLEVHYVLCIC,inactive
14,VGSYVGRAVVEGYNCRVDTG,inactive
15,GWELTFRSEF,inactive
16,VVSHGF,inactive
17,SNTFTPKGNPLWSSVCVFHQ,inactive
18,DRVDIRATADELGLR,inactive
19,ISIFRRTGFAWFWENV,inactive
20,YSFMKP,inactive
21,DQMTHFYYPRNRPRFAISLA,inactive
22,TGFILLTTTVSAINVYQVYR,2.58 ± 0.056
23,RSFFSWAMNMRGLARWAWME,1.78 ± 0.11

row,Substance,amyloid nucleation score
1,GHSHCMNSVLHSNMSLNTVI,inactive
2,YHLYDETMCMP,inactive
3,GRPICNYCRYVVVSVSMRRQ,inactive
4,EQKGKQFEVSVDSYSTWEVG,inactive
5,RRGVRPNATMSA,inactive
6,KQCGTIG,inactive
7,TSWCNSKPCEILYVGSMAKE,inactive
8,SLSNSVWINFARNGLSSLCQ,inactive
9,SLDMYPVVKKCYTYFFFQYF,1.16 ± 0.11
10,DNHVVKVQL,inactive
11,EEMLRHCHKIRERWGSKSFE,inactive
12,LLYYSSINYFLLLGFCSEEL,1.51 ± 0.065
13,GLFESERIYMWAYHFR,inactive
14,YLMFGTTNMAVLIRFEHH,inactive
15,NKFKHESNTNYIPSRQYKVW,inactive
16,HYYVSTDLWSIMMYTILRPC,inactive
17,SWVTVYTVMRVWVTFGNRRR,inactive
18,YLSVIKNTIPEMWIIVGVCR,inactive
19,VWVDFGFPVHMIIL,inactive
20,MLHLYQIIMRPYTLSGWWYY,inactive
21,RGATC,inactive
22,MGQFVRYLMADSCL,inactive
23,SASEKTDSNVVEFCVGRCI,inactive

row,Substance,amyloid nucleation score
1,SLLGISVFKPERANTGQRLV,0.721 ± 0.23
2,ADERRVIR,inactive
3,FRACIVLYNTVHVVHFNISR,0.565 ± 0.46
4,YIRELARPTLSRIKRLAPIS,inactive
5,PIFHGD,inactive
6,LAFVANY,inactive
7,ELGFCNWGGLSWLNQDSSGV,-0.085 ± 1
8,NWLSMQRTLFWP,-0.38 ± 0.5
9,LQKIKCSQADYWREMTVRDR,1.01 ± 0.16
10,HNCASCSVRVHDSQSEKIAT,inactive
11,VVMSWYLVVTI,0.883 ± 0.26
12,SFIRASKVCFDSHGCWFGLG,inactive
13,LPVVFLCRYDSI,inactive
14,VFMCILDWRVNSHMCLKLFH,inactive
15,LDSYVDFLTYFSQKGSRHHL,inactive
16,WIGVQCP,inactive
17,VMFLFGYNKVFKLSICWIGS,inactive
18,CFYAISDRRSRFSIIFTYNG,inactive
19,VRNVKSNANCCFN,inactive
20,AKVRLDGSIGEVHFMELVSY,inactive
21,AYCGACFNLSAYTSKCLELM,inactive
22,RDIQYLCKYLRSMMHRGQAH,inactive
23,NKVPVGG,inactive

row,Substance,amyloid nucleation score
1,YQQSIVHVRRFTYRRAPVVA,-0.46 ± 1.9
2,MNNCLSVDKCFHFMLGFSP,inactive
3,LTRFQ,inactive
4,KKFLAPCSRCWPKMDITRLN,inactive
5,FVLFGGWLPRVQRLSLGTGR,inactive
6,TRNMRWNFVDLARNRASLNS,inactive
7,WRKTRGLNILRLWSLVSFRM,inactive
8,GCHFLH,inactive
9,MWWGWKRFHSMRNYDAYIQM,inactive
10,HLPKLLYATFKWSRYSSKFA,-0.172 ± 1.3
11,SEVVIWFAWYMSLLNPGLYA,inactive
12,SMGLR,inactive
13,TYSNMCVSDVLCLTLT,2.38 ± 0.048
14,VGFPPSSTSRCR,inactive
15,HVFRLAWTMKLWEADTLS,inactive
16,DPYFVG,inactive
17,AFQMCATGRRIDTGDVSFVV,inactive
18,FNAKFFSQNMSVWCGVFM,2.6 ± 0.078
19,TSHNGPYLSMFFRVANT,inactive
20,YLVMTSLIC,inactive
21,TRMGFYKAWYTAYVWRHALL,inactive
22,ISCLDGCFS,inactive
23,FIVSNYKSFVLYHLLNRMLV,inactive

row,Substance,amyloid nucleation score
1,RKFAGYQSSNASGSPVQGMS,inactive
2,ILIGWMILWAICLPKLVDDG,inactive
3,PFSFKLPR,inactive
4,YLICTRPILSLASLVS,inactive
5,MSLNLHLKQGVFKGHTVSAL,inactive
6,KMDLFVRIVSCLVNGCQTTG,inactive
7,RCLMDMFHILPKKSGVFSIT,inactive
8,YDGVNKLRSVCCVESSDFGL,inactive
9,GITVMSLTG,inactive
10,FLNTLFYHMGT,inactive
11,GLFRRVRGIRT,inactive
12,IRFYQKCVLSACVTSTRIMV,inactive
13,FFVRH,inactive
14,YSAQFITSIGLGQKLFS,inactive
15,IAARW,inactive
16,VSNCFTSLQT,inactive
17,PNAEGFFSVSGFCVVLNQSM,1.34 ± 0.087
18,NKVSWIFNDSKGQGSV,-0.291 ± 1.3
19,NYVMRILILCSNGWLGRECV,inactive
20,VTLVNKKGWSFATAITMWKR,inactive
21,KRMWKGE,inactive
22,EICGCCWKPVMWTGRCSCVY,inactive
23,QWGGSNIVRYRNFIVGLFVR,inactive

row,Substance,amyloid nucleation score
1,QIVYSLILGDPPAASVWEKS,inactive
2,VMMYFQFMPLKPSRD,1.25 ± 0.12
3,SEALCWIVTSVCRLRVFLV,inactive
4,HFPAGFFSNWFCSIYYKVY,inactive
5,YLYMG,inactive
6,STNGLLTSNS,inactive
7,CTAILAVMSIGNFFNRLDLN,inactive
8,LKYLCYHRQCSLMPRCWMDR,inactive
9,CDSTPYFLMGSWLG,inactive
10,LILAQVLWFGFETGGKLETM,inactive
11,HGTKREKIYLYGYCPDKNHH,inactive
12,VSMSLDCM,inactive
13,NSNNSGTVKFRNIRLYSTSL,inactive
14,NESLIKVCSALILRKNMCGP,inactive
15,TCKVMSSGYYVLYLDVRV,inactive
16,NTHNNIGGRYAKYGWLMRSK,inactive
17,KGVRCANNVLRKQRLENNNF,inactive
18,LNRDGVISMFFSFCGGTRPR,-0.452 ± 0.93
19,DSCTDEENM,inactive
20,RNISRS,inactive
21,AIPLYWIEFRVRKLSSLFLQ,inactive
22,YFIVSWFFQNCFR,1.19 ± 0.12
23,SGFHERCFINQPVFST,inactive

row,Substance,amyloid nucleation score
1,GYQNVSTHRVKALAHRIWVG,inactive
2,VCSLVGKKRPHGSTSI,inactive
3,RKSSSVRFFEHCVVSDVWLV,inactive
4,LSALHSVYLINAISFGFNQT,1.09 ± 0.13
5,IVKKHVDFQQTVN,inactive
6,LLRHDLYRVCTNRV,inactive
7,TIGEKHCCWSLCIEETLVCD,inactive
8,WNYPFNFQF,inactive
9,RLPPDSQMPSFYCCVDL,-0.144 ± 1.1
10,FTYVNSHECWLVKDMVAYFL,3 ± 0.073
11,FALTIGSFSRMNHTVPNPFE,inactive
12,ILVKIRNRCLEVE,-0.32 ± 1.1
13,LYFMCTNRQVL,inactive
14,VLVCTLVTSLTDAKFRKYFS,0.813 ± 0.2
15,VIAVRYYRLLDRMNVSGSVF,inactive
16,LCGATCLMFMLHVKCTSGFE,inactive
17,NSGYRWEKSLSWMALLGYGC,-0.788 ± 1.1
18,TFLVTRVPYSFF,inactive
19,VVVGIGVAALYEPV,inactive
20,ECCDFSGCRCTSS,-0.498 ± 0.91
21,GVCRVVRSNHCMLWFRLDSS,inactive
22,DCFSGIGCSRRKT,inactive
